# Changes are numbered by the printed parent chain. Names and notes keep the numbering of the source.
# B1: Y65G/I86L/T89A/N110G: human mature BMP7 protein variant, SEQ ID NO: 5 (protein)
# chain: STGSKQRSQNRSKTPKNQEALRMANVAENSSSDQRQACKKHELYVSFRDLGWQDWIIAPEGYAAGYCEGECAFPLNSYMNATNHALVQALVHFINPETVPKPCCAPTQLGAISVLYFDDSSNVILKKYRNMVVRACGCH
# B2: Y65G/T89A/N110G/Y128F: human mature BMP7 protein variant, SEQ ID NO: 9 (protein)
# chain: B1 chain with L86I, Y128F
# B3: Y65G/I86L/N110G/Y128F: human mature BMP7 protein variant, SEQ ID NO: 6 (protein)
# chain: B1 chain with A89T, Y128F
# B4: F93V/N110G: human mature BMP7 protein variant F93V/N110G, SEQ ID NO: 4 (protein)
# chain: B1 chain with G65Y, L86I, A89T, F93V
# B5: Y65G/V114M: human mature BMP7 protein variant, SEQ ID NO: 11 (protein)
# chain: B1 chain with L86I, A89T, G110N, V114M
# B6: Y65G/I86L/N110G: human mature BMP7 protein variant, SEQ ID NO: 10 (protein)
# chain: B1 chain with A89T
# B7: F93V: SEQ ID NO: 2 having the single amino acid mutation F93V (protein, listed as Homo sapiens)
# chain: B1 chain with G65Y, L86I, A89T, F93V, G110N
# B8: N110G: SEQ ID NO: 2 having the single amino acid mutation N110G (protein, listed as Homo sapiens)
# chain: B1 chain with G65Y, L86I, A89T
# B9: V91M: SEQ ID NO: 2 having the single amino acid mutation V91M (protein, listed as Homo sapiens)
# chain: B1 chain with G65Y, L86I, A89T, V91M, G110N
# B10: V114M: SEQ ID NO: 2 having the single amino acid mutation V114M (protein, listed as Homo sapiens)
# chain: B1 chain with G65Y, L86I, A89T, G110N, V114M
# B11: T89A: SEQ ID NO: 2 having the single amino acid mutation T89A (protein, listed as Homo sapiens)
# chain: B1 chain with G65Y, L86I, G110N
# B12: I86V: SEQ ID NO: 2 having the single amino acid mutation I86V (protein, listed as Homo sapiens)
# chain: B1 chain with G65Y, L86V, A89T, G110N
# B13: I86L: SEQ ID NO: 2 having the single amino acid mutation I86L (protein, listed as Homo sapiens)
# chain: B1 chain with G65Y, A89T, G110N
# B14: I94F: SEQ ID NO: 2 having the single amino acid mutation I94F (protein, listed as Homo sapiens)
# chain: B1 chain with G65Y, L86I, A89T, I94F, G110N
# Test system: MFc7 mouse renal myofibroblasts
# Assay: MFc7 bioassay
# Format: cell-based
# Conditions: EC50 of wild type BMP7 protein/EC50 of the variant; multiple amino acid changes (Table 3)
# Method: MFc7 mouse renal myofibroblasts (mouse kidney fibroblast cell line) may be maintained under routine cell culture conditions in OPTI-MEM/10% FBS medium. The cells may be plated in 10 cm tissue culture plates at a seeding density of 500,000 cells/plate. After approximately 48 hours, the cells may be washed with phosphate buffered saline (PBS) prior to the addition of OPTI-MEM/2% dialyzed fetal bovine serum (FBS) medium containing 1 μg/ml BMP7 protein or 1 μg/ml of a BMP7 protein variant and incubated for 48 hours. After treatment the cells may be rinsed with PBS and stored at −80° C. for 20 minutes. After thawing the cells at 37° C. for 30 minutes 100 μl of para-nitrophenyl phosphate (PNPP) may be added. The plate may be incubated at 37° C. for 1 hour. The absorbance at 405 nm may be read utilizing a plate reader. The average relative potency (EC50 of wild type BMP7 protein/EC50 of the BMP7 protein variant) of certain human BMP7 protein variants of the present invention may be calculated based on such readings.
row,Molecule,Average Relative Potency
1,B1,10
2,B2,6.2
3,B3,7
4,B4,9
5,B5,5.0
6,B6,8.7

# Same assay, conditions: EC50 of wild type BMP7 protein/EC50 of the variant; single amino acid change (Table 4)
row,Molecule,Average Relative Potency
1,B7,16
2,B8,1.7
3,B9,3.3
4,B10,9.4
5,B11,3
6,B12,17.4
7,B13,5.9
8,B14,7.5
